# Laboratory results as given in patent US20110230374A1 (UNIVERSITY OF MARYLAND BALTIMORE, published 2011).
# Numbering of substitutions follows the chain as printed.
# B1: VLRB.HEL.2D (other)
# chain: ACPSQCSCSGTTVDCSGKSLASVPTGIPTTTQVLYLYDNQITKLEPGVFDRLTQLTRLDLDNNQLTVLPAGVFDKLTQLTQLSLNDNQLKSIPRGAFDNLKSLTHIWLLNNPWDCACSDILYLSRWISQHPGLVFGYLNLDPDSARCSGTNTPVRAVTEASTSPSKCP
# notes: also called VLRB.2D; wild-type VLRB.2D
# B2: VLRB.2DMut.12 (other)
# chain: B1 chain with G132W, P142H
# B3: VLRB.2DMut.13 (other)
# chain: B1 chain with Q40R, K101R, G132W, P142H, E159K
# B4: VLRB.2DMut.15 (other)
# chain: B1 chain with T29I, D86V, D141Y
# B5: VLRB.CTMut.5 (other)
# chain: ACPSQCSCDQTTVYCHNRRLTSVPTGIPTTTQVLYLYDNQITKLEPGVFDRLTKLTHLSLGYNQLKSVPRGAFDNLKSLTHIWLLNNPWDCQCTDILYLKNWIVQHASIVNPHTHGGVDNVKCSGTNTPVRAVTEASTSPSKC
# Key:
# hen egg lysozyme [1] = biological target: T1, hen egg lysozyme (hen, UniProt P00698 19-147); experiment: YSD antigen titration, flow cytometry, biotin-HEL and SAPE
# T1 construct: Soluble monovalent antigen; Biotinylated for YSD titration; unlabelled analyte in SPR and titrant in ITC; also called HEL
# hen egg lysozyme [2] = biological target: T1, hen egg lysozyme; experiment: ITC at 25 C, VLR refolded from E. coli inclusion bodies, HEL injected
# hen egg lysozyme [3] = biological target: T1, hen egg lysozyme; experiment: SPR (BIAcore T100), biotinylated yeast-secreted VLR on NeutrAvidin, antigen as analyte
# hen egg lysozyme [4] = biological target: T1, hen egg lysozyme; experiment: SPR, steady-state analysis, VLRB.2D (117.0-10.9 µM) over immobilized HEL (FIG. 3A); SPR of FIG. 3A; clone found by phage display
# hen egg lysozyme [5] = biological target: T1, hen egg lysozyme; experiment: SPR, Table 1
# hen egg lysozyme [6] = biological target: T1, hen egg lysozyme; experiment: SPR, VLR over immobilized HEL
# hen egg lysozyme [7] = biological target: T1, hen egg lysozyme; experiment: SPR, steady-state analysis, 2DMut.12 (30.8-1.0 µM) over immobilized HEL (FIG. 3B)
# hen egg lysozyme [8] = biological target: T1, hen egg lysozyme; experiment: SPR (BIAcore T100), biotinylated yeast-secreted VLR on NeutrAvidin, HEL as analyte (7.66-0.00299 nM)
# T1 sequence (P00698 19-147): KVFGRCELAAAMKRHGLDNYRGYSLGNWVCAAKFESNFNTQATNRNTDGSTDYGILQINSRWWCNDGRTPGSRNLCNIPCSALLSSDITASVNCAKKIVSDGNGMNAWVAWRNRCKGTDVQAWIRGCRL
Binder,Kd (hen egg lysozyme [1]) [nM],Kd (hen egg lysozyme [2]) [nM],Kd (hen egg lysozyme [3]) [nM],Kd (hen egg lysozyme [4]) [nM],fold improvement of affinity over wild-type VLRB.HEL.2D (hen egg lysozyme [5]) [fold],fold improvement of affinity over wild-type VLRB.2D (hen egg lysozyme [6]) [fold],Kd (hen egg lysozyme [7]) [nM],fold improvement of affinity over VLRB.HEL.1 (hen egg lysozyme [5]) [fold],Kd (hen egg lysozyme [8]) [nM]
B1,659,427,455,20000,,,,,
B2,6.9,28,4.3,,100,13,1500,,
B3,,34,55.1,,,,,,
B4,,8,20.2,,,,,,
B5,,,,,,,,1300,0.119
